Laboratory results published in PMC9616786 (Cellular and Molecular Life Sciences, 2022).
Where no end group is shown, it is not given here. The star is where a group is joined. Biotin = O=C1N[C@H]2[C@H](CS[C@H]2CCCCC(=O)*)N1

Molecular target: T1, Calmodulin from bovine brain (bovine, UniProt P62157 1-149)
T1 construct: calmodulin, bovine, purified from brain; also called purified bovine brain CaM; CaM; source: bought: Sigma-Aldrich Cat#208694, purified from bovine brain
Test: SPR; Biacore 3000, 25 °C; biotinylated peptides captured on a streptavidin chip; CaM injected at 13.2 nM to 9.6 µM; HBSP (10 mM HEPES pH 7.4, 150 mM NaCl, 0.005% P20) with 1 mM CaCl2; equilibrium analysis, apparent KD
Settings: both partners purified

B1: Peptide INF2 2-19 L14L18A, biotinylated (for surface plasmon resonance) (peptide)
peptide: K(Biotin)GGSVKEGAQRKWAAAKEKAG
notes: added N-terminal K (biotinylated) and two G residues as spacer; INF2, human, amino acids 2-19 with L14A and L18A; also called double L14L18A 2-19 peptide mutant; source: synthetic peptide (Proteomics Facility, CNB, CSIC), HPLC purified
  binding result: binds
